Assay in all cases: fluorescence polarisation; 25 °C; unlabeled Rb^P titrated against 1.5 nM TMR-E2F1^TD or 7.5 nM TMR-E7^LxCxE; 25 mM Tris pH 8.0, 200 mM NaCl, 1 mM DTT, 0.1% Tween-20; 2 min incubation; quadratic fit; apparent Kd for the variants, Kd for WT
Holding throughout (conditions): both partners purified
Background: In fluorescence polarisation assays a small probe gives low polarisation when free and higher when bound to something large.

Assay [1] addresses T1, Rb^P E492Q (human, UniProt P06400 380-788, E492Q).
T1 construct: also called variant 18
T1 sequence (looked up): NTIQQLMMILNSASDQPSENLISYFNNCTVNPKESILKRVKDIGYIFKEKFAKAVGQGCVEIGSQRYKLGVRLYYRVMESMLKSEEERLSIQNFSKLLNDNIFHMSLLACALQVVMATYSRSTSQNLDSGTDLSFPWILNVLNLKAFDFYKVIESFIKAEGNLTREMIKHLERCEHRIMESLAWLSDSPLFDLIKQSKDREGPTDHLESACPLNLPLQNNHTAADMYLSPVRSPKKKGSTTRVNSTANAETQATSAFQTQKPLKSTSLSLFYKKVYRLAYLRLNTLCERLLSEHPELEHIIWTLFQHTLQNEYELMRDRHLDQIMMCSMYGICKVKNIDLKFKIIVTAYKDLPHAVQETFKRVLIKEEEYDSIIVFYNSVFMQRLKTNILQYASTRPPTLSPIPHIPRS

The target in assay [2] is T2, Rb^P A490V (human, UniProt P06400 380-788, A490V).
T2 construct: also called variant 17
T2 sequence (looked up): T1 sequence (looked up) with A111V, Q113E

For assay [3], the target named is T3, Rb^P S671F (human, UniProt P06400 380-788, S671F).
T3 construct: also called variant 53
T3 sequence (looked up): T1 sequence (looked up) with Q113E, S292F

The target of assay [4] is T4, Rb^P A490T (human, UniProt P06400 380-788, A490T).
T4 construct: also called variant 16
T4 sequence (looked up): T1 sequence (looked up) with A111T, Q113E

Assay [5] deals with T5, Rb^P I703V (human, UniProt P06400 380-788, I703V).
T5 construct: also called variant 65
T5 sequence (looked up): T1 sequence (looked up) with Q113E, I324V

Positions count from the first letter of the chain named. In names and notes the source's numbering stands. No end group written: not given here. TMR = tetramethyl rhodamine dye

Results on two molecules are retold here after article PMC11931385, “Structural and functional analysis of cancer-associated missense variants in the retinoblastoma protein pocket domain” (The Journal of Biological Chemistry, 2025).

B1: TMR-E2F1^TD, peptide of the E2F1 transactivation domain (peptide)
peptide: {TMR}-GEGIRDLFDCDFGDLTPLD
notes: also called E2F^TD; source: synthetic peptide, bought: GenScript
As to B1, the Kd in assay [1] was 22 nM; in assay [2] it was 48 nM; in assay [3], 24 nM; in assay [4] it was 59 nM; in assay [5], 20 nM.

B2: TMR-E7^LxCxE, LxCxE peptide of the E7 oncoprotein from HPV (peptide)
peptide: DLYCYEQLN
modifications: also: TMR label, position not given here
notes: source: synthetic peptide, bought: GenScript
Take B2: the Kd in assay [1] was 14 nM; in assay [2], 11 nM; in assay [3] it was 9 nM; in assay [4], 13 nM; in assay [5], 21 nM.
